Patent publication US20220204567A1 (published 2022)

Columns and labels:
Experiment in all cases: ELISA
[1] = target: wild type HA ectodomain of H3 A/Hong Kong/1/1968 with C-terminal Foldon trimerization domain
[2] = target: wild type HA ectodomain of H3 A/Indiana/11/2011 with C-terminal Foldon trimerization domain
[3] = target: UFV4239, wild type HA ectodomain of H1 A/California/07/2009 without Foldon trimerization domain
[4] = target: wild type HA ectodomain of H1 A/Michigan/45/2015 with C-terminal Foldon trimerization domain

B1: CR9114 (antibody, V domains shown)
VH: QVQLVQSGAEVKKPGSSVKVSCKSSGGTSNNYAISWVRQAPGQGLDWMGGISPIFGSTAYAQKFQGRVTISADIFSNTAYMELNSLTSEDTAVYFCARHGNYYYYSGMDVWGQGTTVTVSS
VL: SYVLTQPPAVSGTPGQRVTISCSGSDSNIGRRSVNWYQQFPGTAPKLLIYSNDQRPSVVPDRFSGSKSGTSASLAISGLQSEDEAEYYCAAWDDSLKGAVFGGGTQLTVL
Q: B1 was tested. Which EC50 [1] did it give?
A: 12.7 nM

Q: What about the EC50 [2] of the same binder?
A: 25 nM

B2: CR6261 (antibody, V domains shown)
VH: EVQLVESGAEVKKPGSSVKVSCKASGGPFRSYAISWVRQAPGQGPEWMGGIIPIFGTTKYAPKFQGRVTITADDFAGTVYMELSSLRSEDTAMYYCAKHMGYQVRETMDVWGKGTTVTVSS
VL: QSVLTQPPSVSAAPGQKVTISCSGSSSNIGNDYVSWYQQLPGTAPKLLIYDNNKRPSGIPDRFSGSKSGTSATLGITGLQTGDEANYYCATWDRRPTAYVVFGGGTKLTVL
Q: What does the source list for B2?
A: EC50 [3]: 1 nM; EC50 [1]: > 70 nM; EC50 [4]: 0.6 nM; EC50 [2]: > 70 nM

B3: CR8020 (antibody, V domains shown)
VH: QVQLQQSGAEVKTPGASVKVSCKASGYTFTSFGVSWIRQAPGQGLEWIGWISAYNGDTYYAQKFQARVTMTTDTSTTTAYMEMRSLRSDDTAVYYCAREPPLFYSSWSLDNWGQGTLVTVSS
VL: EIVLTQSPGTLSLSPGERATLSCRASQSVSMNYLAWFQQKPGQAPRLLIYGASRRATGIPDRISGSGSGTDFTLTISRLEPADFAVYYCQQYGTSPRTFGQGAKVEIK
Q: For B3, which EC50 [3] is on record?
A: > 70 nM

Q: What about the EC50 [1] of the same binder?
A: 1.6 nM

Q: What about the EC50 [4] of the same binder?
A: > 70 nM

Q: And the EC50 [2]?
A: 1.9 nM
